This is an account of results in US20170106084A1 (Hoffmann-La Roche, published 2017).

Square brackets hold non-standard residues; d marks the D form. Ends that are not written are not given here. pS = N[C@@H](COP(=O)(O)O)C(=O)O

The target in test [1] is T1, human tau(pS422) fragment SEQ ID NO: 03 (human, also: biotinylated).
T1 construct: also called phosphorylated tau peptide
T1 peptide: SIDMVD[pS]PQLATLAD
The test is described as follows: ELISA, coated antigen. A general note: ELISA stands for enzyme-linked immunosorbent assay.

The target in test [2] is full length human tau S422A mutant (human, UniProt P10636 2-758). The test is described as follows: ELISA, coated antigen.
full length human tau S422A mutant, sequence (P10636 other isoform, or with tags, fused parts or gaps S422A S422A limits assumed): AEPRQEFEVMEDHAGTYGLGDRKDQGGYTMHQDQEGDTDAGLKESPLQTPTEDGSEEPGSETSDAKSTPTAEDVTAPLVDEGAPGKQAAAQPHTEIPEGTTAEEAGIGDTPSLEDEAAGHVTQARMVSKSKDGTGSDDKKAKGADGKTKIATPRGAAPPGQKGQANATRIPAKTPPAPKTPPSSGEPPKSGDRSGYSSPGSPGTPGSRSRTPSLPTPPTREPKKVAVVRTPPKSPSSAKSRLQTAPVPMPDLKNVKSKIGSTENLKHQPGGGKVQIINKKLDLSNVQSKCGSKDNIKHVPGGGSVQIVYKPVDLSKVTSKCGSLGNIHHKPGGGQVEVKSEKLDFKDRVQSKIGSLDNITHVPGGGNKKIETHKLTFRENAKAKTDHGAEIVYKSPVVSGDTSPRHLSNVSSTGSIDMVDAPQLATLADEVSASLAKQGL
Test [3] deals with T2, tau peptide residues 416 to 430 of SEQ ID NO: 01 (human, also: biotinylated, site not given here).
T2 construct: also called non-phosphorylated tau peptide
T2 peptide: SIDMVDSPQLATLAD
The test is described as follows: ELISA, coated antigen.

For test [4], the target named is T3, transferrin receptor on hCMEC/D3 cells (UniProt P02786 1-760, limits assumed).
T3 construct: whole, on cells; also called TfR
T3 sequence (P02786 whole entry): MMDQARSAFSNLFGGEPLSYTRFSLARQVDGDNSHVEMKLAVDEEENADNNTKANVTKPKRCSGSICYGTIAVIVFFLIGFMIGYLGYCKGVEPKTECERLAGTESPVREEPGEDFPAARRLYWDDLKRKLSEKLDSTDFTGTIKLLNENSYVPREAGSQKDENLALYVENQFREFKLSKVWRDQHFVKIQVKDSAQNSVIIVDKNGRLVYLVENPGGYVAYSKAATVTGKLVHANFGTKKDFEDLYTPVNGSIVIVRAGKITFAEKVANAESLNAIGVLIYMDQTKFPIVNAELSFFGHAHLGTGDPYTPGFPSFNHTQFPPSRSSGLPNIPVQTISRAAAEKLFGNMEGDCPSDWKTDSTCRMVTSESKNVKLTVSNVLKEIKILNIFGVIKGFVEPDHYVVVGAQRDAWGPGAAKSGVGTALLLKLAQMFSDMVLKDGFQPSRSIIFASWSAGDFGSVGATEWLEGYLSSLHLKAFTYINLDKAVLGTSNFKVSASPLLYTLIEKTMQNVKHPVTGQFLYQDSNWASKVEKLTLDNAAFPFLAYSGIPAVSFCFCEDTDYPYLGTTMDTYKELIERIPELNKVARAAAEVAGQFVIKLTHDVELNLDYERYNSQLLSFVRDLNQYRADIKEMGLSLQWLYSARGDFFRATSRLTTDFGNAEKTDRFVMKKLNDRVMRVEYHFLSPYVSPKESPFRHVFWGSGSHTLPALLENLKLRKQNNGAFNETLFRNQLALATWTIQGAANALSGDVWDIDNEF
The test is described as follows: transwell assay on hCMEC/D3 cells, IgG ELISA.
Protocol: We used brain endothelial cells (hCMEC/D3) to investigate cell binding and transcytosis of the shuttle modules as reported herein. […] Cell monolayers were washed at room temperature in serum-free medium apically (400 μl) and basolaterally (1600 μl) three times for 3-5 minutes each. All wash volumes were collected to monitor efficiency of removal of the unbound ligand or antibody. Pre-warmed medium was added to the apical chamber and the filters transferred to a fresh 12 well plate (blocked overnight with PBS containing 1% BSA) containing 1600 μl pre-warmed medium. At this point, cells were lysed in 500 μl RIPA buffer (Sigma, Munich, Germany, #R0278) in order to determine specific uptakes. The remaining filters were incubated at 37° C. and samples collected at various time points to determine apical and/or basolateral release. The content of antibody in the samples was quantified using a highly sensitive IgG ELISA.

The target in test [5] is T4, MCAK_Human (88-102)[95-pSer] (human, UniProt Q99661 88-102, also: biotinylated, site not given here).
T4 construct: also called MCAK phosphopeptide
T4 peptide (looked up): IQKQKRR[pS]VNSKIPA
The test is described as follows: ELISA, single point.

In test [6] the target is T1, human tau(pS422) fragment SEQ ID NO: 03. The test can be described thus: ELISA, ratio of EC50 values.
Protocol: (§1) Rabbit monoclonal antibodies were recombinantly expressed in HEK 293 cells. […] Coating with KLH or control peptides was performed at 1 μg/ml. […] After intensive washing, the binding of the rabbit antibodies was detected using a sheep anti-rabbit IgG digoxigenin conjugated detection antibody (Chemicon AQ301D). […] The antibody binding was characterized by its EC50 values. […] Cross-reactivity with KLH or MCAK phosphopeptide was estimated by single-point measurement at high concentrations, i.e. at 1:5 dilution of the cell culture supernatants.
Test [7] shares this target. The test can be described thus: ELISA, biotinylated peptide on streptavidin plate.
Protocol: as §1
Test [8] has as its target T2, tau peptide residues 416 to 430 of SEQ …. The test is described as follows: ELISA, biotinylated peptide on streptavidin plate.
Protocol: as §1
Test [9] deals with T3, transferrin receptor on hCMEC/D3 cells. The test can be described thus: transwell assay on hCMEC/D3 cells, huFc ELISA.
Test [10] shares this target. The test can be described thus: transwell assay on hCMEC/D3 cells, huFc ELISA. This is another data set of the same source.

B1: VH32/VL21 (antibody, V domains shown)
VH: EVQVLESGGGLVQPGGSLRLSCAVSGFSLSSNAINWVRQAPGKGLEWVGYIAVSGNTYYASWAKGRFTISRDNSKNTVYLQMNSLRAEDTAVYYCGKSNIWGQGTLVTVSS
VL: AQVMTQSPSSLSASVGDRVTITCRSSQSVRTNKLAWFQQKPGQPPKRLIYSASTLDFGVPSRFSGSGSGTEFTLTISSLQPEDFATYYCLGYFDSSADIVAFGGGTKVEIK
notes: full size IgG; kappa (59) or lambda (60) light constant not specified
Broadly, the EC50 is the midpoint of the concentration-response curve. The low end stands for a more potent agent, the high end for a less potent agent. On to B1, for which the results for the EC50 in test [1], in test [2] and in [3] were 0.0044 µg/mL, 0.0215 µg/mL and 0.634 µg/mL, respectively.

B2: VH32/VL22 (antibody, V domains shown)
VH: EVQVLESGGGLVQPGGSLRLSCAVSGFSLSSNAINWVRQAPGKGLEWVGYIAVSGNTYYASWAKGRFTISRDNSKNTVYLQMNSLRAEDTAVYYCGKSNIWGQGTLVTVSS
VL: AQVMTQSPSSLSASVGDRVTITCRSSQSVRTNRLAWFQQKPGQPPKRLIYSASTLDYGVPSRFSGSGSGTEFTLTISSLQPEDFATYYCLGYFDSSADIVAFGGGTKVEIK
notes: as for B1
As for B2, the EC50 in test [2] stood at 0.0174 µg/mL; in [3], 0.048 µg/mL.

B3: TfR1-Bio (bispecific antibody, human IgG1, kappa)
heavy: not shown
light: QIVLTQSPAIMSASPGEKVTMTCSASSSIRYIHWYQQRPGTSPKRWIYDTSNLASGVPARFSGSGSGTSYSLTISSMEAEDAATYYCHQRNSYPWTFGGGTRLEIKRTVAAPSVFIFPPSDEQLKSGTASVVCLLNNFYPREAKVQWKVDNALQSGNSQESVTEQDSKDSTYSLSSTLTLSKADYEKHKVYACEVTHQGLSSPVTKSFNRGEC
notes: bivalent anti-TfR1 IgG with an anti-biotin scFv at each CH3 C-terminus; also called anti-TfR1 antibody-Bio
Regarding B3, the binding result in [4] was “binds”.

B4: TfR2-Bio (bispecific antibody, human IgG1, kappa)
heavy: not shown
light: QIVLTQSPAIMSASPGEKVTVTCSASSSIRYMHWYQQKPGTSPKRWIYDTSELASGVPARFSGSGSGTSYSLTINSMEAEDAATYYCHQRSSYPFTFGGGTKLEIKRTVAAPSVFIFPPSDEQLKSGTASVVCLLNNFYPREAKVQWKVDNALQSGNSQESVTEQDSKDSTYSLSSTLTLSKADYEKHKVYACEVTHQGLSSPVTKSFNRGEC
notes: bivalent anti-TfR2 IgG with an anti-biotin scFv at each CH3 C-terminus; also called anti-TfR2-Bio
For B4, in test [4], the binding result is given as “binds”.

B5: VH00/VL00 (antibody, V domains shown)
VH: QSVEESGGRLVTPGTPLTLTCTVSGFSLSSNAINWVRQAPGKGLEWIGYIAVSGNTYYASWAKGRFTISKASTTVDLKMTSPTAEDTGTYFCGKSNIWGPGTLVTVSL
VL: AQVLTQTTSPVSAAVGSTVTISCQSSQSVRTNKLAWFQQKPGQPPKRLIYSASTLDFGVPSRFSASGSGTQFTLTISDVQCDDAATYYCLGYFDCSIADCVAFGGGTEVVVK
notes: rabbit variable domains; also called VH00 with VL00 (rabbit antibody); parent rabbit antibody
B5: in test [2], the midpoint of the response, the EC50, lay at 0.0479 µg/mL.

B6: mAb 086 (antibody, V domains shown)
VH: QSVEESGGRLVTPGTPLTLTCTVSGFSLSSNAINWVRQAPGKGLEWIGYIAVSGNTYYASWAKGRFTISKASTTVDLKMTSPTAEDTGTYFCGKSNIWGPGTLVTVSL
VL: AQVLTQTTSPVSAAVGSTVTISCQSSQSVRTNKLAWFQQKPGQPPKRLIYSASTLDFGVPSRFSASGSGTQFTLTISDVQCDDAATYYCLGYFDCSIADCVAFGGGTEVVVK
notes: recombinant rabbit IgG; also called rabbit antibody mAb 086
Regarding B6, the binding result in test [5] is given as “no binding”. Also, the “selectivity against non-phosphorylated tau peptide” value in test [6] is not below 100 fold. Moreover, the EC50 is 0.0011 µg/mL in test [7] and 0.266 µg/mL in test [8].

B7: anti-TfR1 antibody (TfR1) (antibody, V domains shown)
VH: EVQLQQSGPELVKPGASMKISCKASGYSFTGYTMNWVKQSHGENLEWIGRINPHNGGTDYNQKFKDKAPLTVDKSSNTAYMELLSLTSEDSAVYYCARGYYYYSLDYWGQGTSVTVSS
VL: QIVLTQSPAIMSASPGEKVTMTCSASSSIRYIHWYQQRPGTSPKRWIYDTSNLASGVPARFSGSGSGTSYSLTISSMEAEDAATYYCHQRNSYPWTFGGGTRLEIKR
notes: also called parent antibody
Consider B7, for which the binding result in test [9] is “binds”.

B8: anti-TfR2 antibody (TfR2) (antibody, V domains shown)
VH: EVQLQQSGPELVKPGASVKMSCKASGYTFTSYVMHWVKQKPGQGLEWIGYVNPYNDDTKYNEKFRGKATLTSDKSSSTAYMELSSLTSEDSAVYYCARSYYYYSMDNWGQGTSVTVSS
VL: QIVLTQSPAIMSASPGEKVTVTCSASSSIRYMHWYQQKPGTSPKRWIYDTSELASGVPARFSGSGSGTSYSLTINSMEAEDAATYYCHQRSSYPFTFGGGTKLEIKR
notes: also called parent antibody
In the case of B8, in [10], the binding result is “binds”.
